The target in test [1] is Mamu-E*02:04, single transfectant (rhesus macaque). Nature of the test: cell-based or functional assay.
Test [2] has as its target Mamu-E*02:20, single transfectant (rhesus macaque). Nature of the test: cell-based or functional assay.

For SIVgag476-484 optimal 9mer peptide, the peptide dose pulsed on the transfectant that triggers CD8+ T cells (ICS) in test [1] and in test [2] was below 1 nM in each case.

Turning to SIVgag259-267 optimal 9mer peptide, the peptide dose pulsed on the transfectant that triggers CD8+ T cells (ICS) in test [1] and in test [2] was below 1 nM each time.

On to SIVgag276-284 optimal 9mer peptide, for which the peptide dose pulsed on the transfectant that triggers CD8+ T cells (ICS) in test [1] and in test [2] was below 1 nM in each case.

With SIVgag482-490 optimal 9mer peptide, the peptide dose pulsed on the transfectant that triggers CD8+ T cells (ICS) in test [1] and in test [2] was below 1 nM in each case.

For the origin of these results see patent US20180298404A1.
